Measurements reported in patent US20240100187A1 (AC IMMUNE, published 2024).
Values joined by “and” are separate entries in the source; they are usually repeats but may differ in a detail not shown here. Identical values can stand only once.

Tests used:
[1] = molecular target: T1, TDP-43 C-terminal peptide called TP-62; experiment: BLI (Octet), TP-62 on streptavidin biosensors, 2-fold dilutions from 100 nM, 30 C
T1 construct: also called TP-62 peptide

[2] = molecular target: T2, human full length TDP-43 protein (human, UniProt Q13148 1-414); experiment: indirect ELISA on coated human full length TDP-43, anti-human secondary antibody, absorbance A450nm; apical supernatants of hCMEC/D3 in the OrganoPlate BBB model 3 days after transduction, and purified control antibodies
T2 construct: mature; Coated at 1 ug/ml on ELISA plates; also called hTDP-43 full length (FL) protein; human FL TDP-43
Experimental: Supernatants from both top lane (apical) and bottom lane (basolateral) were collected 3 days post-transduction and antibody concentrations in the apical and basolateral compartments were determined by binding to human full-length (FL) TDP-43 using an indirect ELISA. In brief, ELISA plate coating with 1 μg/ml human FL TDP-43 was performed overnight in carbonate buffer at 4° C. Plates were washed with 0.05% Tween-20/PBS and then blocked with 1% bovine serum albumin (BSA) in 0.05% Tween-20/PBS for 1 hour at 37° C. Collected antibody-containing supernatants were then added to the plate and incubated for 2 hours at 37° C. after which the plates were washed. […] After the final wash, plates were incubated with pNPP solution and read at 405 nm after 1h using a plate reader (BioTek). […] Supernatants from both apical and basolateral sides were collected 3 days post-transduction and antibody concentrations in the apical and basolateral compartments were determined by binding to human FL TDP-43 using an indirect ELISA as described previously.

[3] = molecular target: T1, TDP-43 C-terminal peptide called TP-62; experiment: BLI (Octet), TP-62 peptide loaded at 500 nM on streptavidin biosensors, antibody from 100 nM in 2-fold serial dilutions, 900 s association, 600 s dissociation [cont.]
[4] = molecular target: T1, TDP-43 C-terminal peptide called TP-62; experiment: BLI (Octet), TP-62 on streptavidin biosensors; range told for the IgG constructs, transfected or vectorized

T2 sequence (Q13148 whole entry): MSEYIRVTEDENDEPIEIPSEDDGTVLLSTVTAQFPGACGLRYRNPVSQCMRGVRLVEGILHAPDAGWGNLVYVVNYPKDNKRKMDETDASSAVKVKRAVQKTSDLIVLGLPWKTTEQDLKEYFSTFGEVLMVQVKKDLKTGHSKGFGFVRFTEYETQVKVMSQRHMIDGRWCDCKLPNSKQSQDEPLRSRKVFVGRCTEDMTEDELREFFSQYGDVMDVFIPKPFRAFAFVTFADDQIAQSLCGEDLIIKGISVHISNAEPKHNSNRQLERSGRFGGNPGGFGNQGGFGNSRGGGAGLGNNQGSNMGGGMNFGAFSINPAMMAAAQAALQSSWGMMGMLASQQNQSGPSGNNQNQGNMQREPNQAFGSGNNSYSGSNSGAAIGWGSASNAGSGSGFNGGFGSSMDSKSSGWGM

B1: MAB1 IgG (anti-TDP-43 antibody, chimeric human IgG1) (antibody, V domains shown)
VH: EVQLQQSGPELVKPGASVKISCKTSGFTFTEYSMHWVKQSHGKSLEWIGGINPNNGGTSYNQKFKGKATLTVDKSSSTAYMELRSLTSEDSAVYYCARESWGQGTTLTVSS
VL: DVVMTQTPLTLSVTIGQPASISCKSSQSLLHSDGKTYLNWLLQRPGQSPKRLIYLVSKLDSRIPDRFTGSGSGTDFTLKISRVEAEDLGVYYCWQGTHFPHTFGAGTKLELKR
notes: Chimeric human IgG1 anti-TDP-43; The IRES and 2 promoter constructs give the same correctly matured protein, whether transfected (CHO) or AAV-vectorized, so they are treated as one molecule; also called MAB1 hIgG1; IgG standard
With B1 the Kd [1] was 5.7 nM and 4.7 nM and 4.3 nM, the binding result [2] was “binds” and the Kd [3] was ~4.66 nM. It also gave a koff [3] of 0.000435 s⁻¹, a kon [3] of 170000 M⁻¹ s⁻¹ and a Kd [4] of 4 to 6 nM.
